Measurements reported in patent US7704951B2, “Method for ameliorating dyskinesia” (Juridical Foundation the Chemo-Sero-Therapeutic Research …, priority 2001, dated 2010).
“Also recorded” adds a separate entry of the source. Where no end group is shown, it is not given here. [ ]: non-standard residue; d: D form. Sec = N[C@@H](C[SeH])C(=O)O

Assays:
[1] = cited from earlier work
[2] = system: Dami cells; assay: Cytotoxicity-inhibitory (cell death-inhibitory) activity assay using Dami cells; type: cell-based; details: for cytotoxicity-inhibitory activity: Dami cells, fatty acid-containing assay medium, 4 to 5 days, survival of the cells
Protocol: Using Dami cells (described in Greenberg S. M. et al., Blood, vol. 72, p. 1968-1977 (1988)) for use in assay system for cytotoxicity-inhibitory activity, the cells were washed twice with assay medium (50% PBS/SA/0.03% HSA (manufactured by SIGMA) or SA/0.05% BSA free from fatty acid (WAKO)/4 μM long-chain polyvalent fatty acid (e.g. arachidonic acid, linoleic acid or linolenic acid)) and suspended in the same medium at 3×10^4 cells/ml. The cell suspension was added to a 96-well plate in each 200 μl for wells for sample addition or in each 100 μl for wells for serial dilution. To the wells for sample addition was added each 2 μl assay sample containing either selenoprotein P fragment prepared in Preparation 1, selenocystine, selenomethionine, Ebselen, or sodium selenite at the same concentration. After stirring, a serial dilution was made with the wells containing 100 μl cell suspension. The plate was incubated at 37° C. in CO2 incubator for 4 to 5 days followed by assessment of survival of the cells.

[3] = Toxicity of selenium compounds (cell culture); details: in spite of 9 to 10 selenocysteines
From the text: Selenium per se, as involved in the present invention, is one of essential trace elements and it is known that deficiency thereof induces a serious deficiency disease accompanied by, for instance, cardiomyopathy. […] Acute toxic symptoms of selenium include, for example, pale face, neurological symptoms, dermatitis, and gastrointestinal disorders.

[4] = system: gerbil mice; assay: Cerebral ischemia/reperfusion injury model (blocking both carotid arteries), degree of paralysis; type: in vivo; details: 1 mg/animal i.v., vs control
Protocol: Effect of selenoprotein P on dyskinesia induced by cerebral ischemia/reperfusion injury was assessed with a degree of paralysis using gerbil mice of 12 weeks old. […] […] A degree of paralysis was assessed after 6 and 24 hours.

[5] = system: EAE mice (SJL/JOrIICrj); assay: Experimental allergic encephalomyelitis (EAE) in mice, degree of paralysis; type: in vivo, mouse; details: 0.5 mg/head daily i.p. Day 8 to Day 13
Protocol: For investigating the effect of selenoprotein P on dyskinesia induced by immunopathy based on a degree of paralysis, an experiment was performed wherein selenoprotein P was administered to EAE mice. Female SJL/JOrIICrj of 14 weeks old (Charles River Japan, Inc.) was used as a test animal. Myelin proteolipid protein (PLP) synthetic peptide 139-151 (amino acid sequence: His Ser Leu Gly Lys Trp Leu Gly His Pro Asp Lys Phe (SEQ ID NO: 6); […]) as an immunogen was intradermally administered to the mice together with Freund complete adjuvant H37Ra ([…]) and pertussis toxin (manufactured by List Biological Laboratory; 200 ng/mouse) at two portions at the neck of tail.
Thirteen mice each in two groups received daily 0.5 mg/head of selenoprotein P via intraperitoneal administration from the day (Day 8) previous to onset of the disease till Day 13. A control group received saline via intraperitoneal administration.

[6] = system: hNT cells; assay: Survival and protrusion formation in cultured human neurocytes; type: cell-based
Protocol: NT2 (Ntera2/D1) (Pleasure, S. J. and Lee, V. M., 1993, J. Neurosci. Res. 35: 585-602) is a progenitor neurocyte derived from human teratocarcinoma and can be differentiated with retinoic acid into hNT neurocytes having the properties of the nerve in the central nervous system (Trojanowski, J. Q. et al., 1993 Exp. Neurol. 122: 283-294). Effect of selenoprotein P on protrusion formation in the hNT cells was investigated.
Both NT2 and hNT cells can be cultured in CO2 incubator at 37° C. The hNT cells were prepared as follows: NT2 cells, being capable of passage culture in 10% FCS/D-MEM/F-12 medium, were first plated at 2.5×10^5 cells/ml. After 24 hours, the culture medium was replaced with D-MEM/F-12 containing 10 μM all-trans retinoic acid to initiate induction. The culture was subsequently continued for six weeks while replacing with the same medium every three days to differentiate NT2 cells into hNT cells. All the differentiated cells were recovered and expanded by 3-folds by passage culture with 10% FCS/D-MEM/F-12 medium. After 48 hours, the cells were plated at 3 to 4×10^6 cells/ml. After 48-hour culture, the culture medium was replaced with 5% FCS/D-MEM/F-12 plus mitotic inhibitor (10 μM Fluorodeoxyuridine, Uridine, 1 μM cytosine arabinoside) and culture was continued for ten days while replacing with the same medium every three days. Subsequently, the culture was treated with trypsin for a short time period and then lightly tapped to release the hNT cells which were recovered. The recovered cells were suspended in a mixed medium of an equal amount of NT2 culture supernatant (10% FCS/D-MEM/F-12 medium) and a fresh 10% FCS/D-MEM/F-12 medium. The suspension was plated on Laminin coating plate to maintain the cells. The hNT cells thus obtained were used in the following experiment.
The hNT cells were recovered by trypsin treatment, washed with a basal medium of RPMI 1640/D-MEM/F-12 (1:2:2), suspended in the same basal medium and cultured in 96-well plate at 3000 cells/well. On Day 5 to Day 7, the cells died completely.

N[C@@H](C[Se][Se]C[C@H](N)C(=O)O)C(=O)O [selenocystine]
toxicity when added alone to cell culture [1]: fairly strong toxicity

KRCINQLLCKLPTDSELAPRS (cysteine pairing not given here) [SEQ ID NO: 5, selenoprotein P-derived peptide with no selenocysteine, reference compound]
cytotoxicity-inhibitory activity [2]: exhibit no cytotoxicity-inhibitory activity

Lys Arg Cys Ile Asn Gln Leu Leu Cys Lys Leu Pro Thr Asp Ser Glu Leu Ala Pro Arg Ser Xaa Cys Cys His Cys Arg His Leu Ile Phe Glu Lys (KRCINQLLCKLPTDSELAPRS[Sec]CCHCRHLIFEK; cysteine pairing not given here; listed as Homo sapiens) [SEQ ID NO: 4, peptide purified from selenoprotein P fragments under reduced condition; Xaa = selenocysteine]
cytotoxicity-inhibitory activity [2]: exhibit cytotoxicity-inhibitory activity

B1: selenoprotein P (protein, UniProt P49908 20-381, looked up)
Selenoprotein P: ESQDQSSLCKQPPAWSIRDQDPMLNSNGSVTVVALLQASUYLCILQASKLEDLRVKLKKEGYSNISYIVVNHQGISSRLKYTHLKNKVSEHIPVYQQEENQTDVWTLLNGSKDDFLIYDRCGRLVYHLGLPFSFLTFPYVEEAIKIAYCEKKCGNCSLTTLKDEDFCKRVSLATVDKTVETPSPHYHHEHHHNHGHQHLGSSELSENQQPGAPNAPTHPAPPGLHHHHKHKGQHRQGHPENRDMPASEDLQDLQKKLCRKRCINQLLCKLPTDSELAPRSUCCHCRHLIFEKTGSAITUQCKENLPSLCSUQGLRAEENITESCQURLPPAAUQISQQLIPTEASASURUKNQAKKUEUPSN
toxicity [3]: no strong toxicity
cell death-inhibitory activity per proteins ([2]; full-length protein compared with fragment fraction from Preparation 1): much lower than that of the fragment
degree of paralysis (score, Table 1) ([4]; 30 minutes ischemia model, after 6 and 24 hours): apparently exhibited better conditions
degree of paralysis (score, Table 1) ([4]; 45 minutes ischemia model, after 6 hours): no significant difference
degree of paralysis (score, Table 1) ([4]; 45 minutes ischemia model, after 24 hours): much difference
onset of the disease [5]: onset of the disease was inhibited
severity of the disease (paralysis score, Table 2) [5]: severity of the disease was lowered
survival time of hNT cells ([6]; 100 ng/ml, basal medium): more than two weeks
cell death of hNT cells ([6]; 100 ng/ml, basal medium RPMI 1640/D-MEM/F-12, without addition cells died completely on Day 5 to Day 7): completely inhibited
protrusion formation (cellular morphology) ([6]; hNT cells, observed on Day 4, FIG. 3): protrusion formation was observed; also recorded: protrusion was formed
